Experimental data: article doi:10.1101/557611

Tests used:
[1] = target: microtubules (without MAP7); test: single-molecule TIRF microscopy
[2] = target: MAP7-decorated microtubules (mammalian MAP7) (UniProt O88735); test: optical trapping
[3] = target: microtubules (without MAP7); test: optical trapping

In the case of “MAP7 (ensconsin, E-MAP-115), mammalian, with N-terminal FLAG and SNAP-tags (from UniProt O88735 1-730) (natural protein)”, the mean dwell time [1] is reported as 114 s.
Substance “dynein on isolated phagosomes (teams of dynein motors) (complex)” has an increase of the relative binding rate against microtubules without MAP7 [2] of 10%, an unbinding rate at zero load [2] of 0.0207 s⁻¹ and an unbinding rate at zero load [3] of 0.0237 s⁻¹.
